Data published in EP4556018A1 (OSAKA UNIVERSITY, dated 2025).

B1: endogenous Foxp3 of mouse Treg cells (other, UniProt Q99JB6 1-429, looked up)
chain: MPNPRPAKPMAPSLALGPSPGVLPSWKTAPKGSELLGTRGSGGPFQGRDLRSGAHTSSSLNPLPPSQLQLPTVPLVMVAPSGARLGPSPHLQALLQDRPHFMHQLSTVDAHAQTPVLQVRPLDNPAMISLPPPSAATGVFSLKARPGLPPGINVASLEWVSREPALLCTFPRSGTPRKDSNLLAAPQGSYPLLANGVCKWPGCEKVFEEPEEFLKHCQADHLLDEKGKAQCLLQREVVQSLEQQLELEKEKLGAMQAHLAGKMALAKAPSVASMDKSSCCIVATSTQGSVLPAWSAPREAPDGGLFAVRRHLWGSHGNSSFPEFFHNMDYFKYHNMRPPFTYATLIRWAILEAPERQRTLNEIYHWFTRMFAYFRNHPATWKNAIRHNLSLHKCFVRVESEKGAVWTVDEFEFRKKRSQRPNKCSNPCP
notes: Immunoprecipitated with anti-Foxp3 antibody from Treg cell lysates
B2: Myc-Foxp3 (other, UniProt Q99JB6 1-429, looked up)
chain: MPNPRPAKPMAPSLALGPSPGVLPSWKTAPKGSELLGTRGSGGPFQGRDLRSGAHTSSSLNPLPPSQLQLPTVPLVMVAPSGARLGPSPHLQALLQDRPHFMHQLSTVDAHAQTPVLQVRPLDNPAMISLPPPSAATGVFSLKARPGLPPGINVASLEWVSREPALLCTFPRSGTPRKDSNLLAAPQGSYPLLANGVCKWPGCEKVFEEPEEFLKHCQADHLLDEKGKAQCLLQREVVQSLEQQLELEKEKLGAMQAHLAGKMALAKAPSVASMDKSSCCIVATSTQGSVLPAWSAPREAPDGGLFAVRRHLWGSHGNSSFPEFFHNMDYFKYHNMRPPFTYATLIRWAILEAPERQRTLNEIYHWFTRMFAYFRNHPATWKNAIRHNLSLHKCFVRVESEKGAVWTVDEFEFRKKRSQRPNKCSNPCP
notes: Forcedly expressed in HEK293T cells; not shown: Myc tag

Legend:
[1] = biological target: T1, HDAC1 of mouse Treg cells (mouse, UniProt O09106 1-482); assay: immunoprecipitation of endogenous Foxp3 from Ikzf1-expressing mouse Treg cells, Simple Western
T1 construct: also called HDAC1 protein

Flag-IkΔE5 = biological target: T2, Flag-IkΔE5 (Mus musculus, UniProt Q03267 1-517, limits assumed); assay: co-immunoprecipitation with anti-Flag-M2 antibody from HEK293T lysate, Western blot with anti-c-Myc
T2 construct: Forcedly expressed in HEK293T cells; also called ΔE5 variant; Ikzf1ΔE5; not shown: Flag tag
T2 sequence (Q03267 other isoform, or with tags, fused parts or gaps mutant limits assumed): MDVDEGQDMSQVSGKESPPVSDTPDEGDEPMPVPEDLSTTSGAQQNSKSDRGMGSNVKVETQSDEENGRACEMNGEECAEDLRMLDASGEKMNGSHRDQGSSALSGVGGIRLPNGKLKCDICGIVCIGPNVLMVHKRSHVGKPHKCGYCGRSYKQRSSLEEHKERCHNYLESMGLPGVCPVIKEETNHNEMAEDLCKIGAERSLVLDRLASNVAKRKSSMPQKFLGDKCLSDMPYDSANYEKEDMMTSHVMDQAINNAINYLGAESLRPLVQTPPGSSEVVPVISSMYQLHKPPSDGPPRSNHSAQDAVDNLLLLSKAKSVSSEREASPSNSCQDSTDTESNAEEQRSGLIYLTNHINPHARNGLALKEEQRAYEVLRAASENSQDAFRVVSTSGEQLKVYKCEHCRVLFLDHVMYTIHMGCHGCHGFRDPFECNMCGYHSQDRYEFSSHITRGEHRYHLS

T1 sequence (O09106 whole entry): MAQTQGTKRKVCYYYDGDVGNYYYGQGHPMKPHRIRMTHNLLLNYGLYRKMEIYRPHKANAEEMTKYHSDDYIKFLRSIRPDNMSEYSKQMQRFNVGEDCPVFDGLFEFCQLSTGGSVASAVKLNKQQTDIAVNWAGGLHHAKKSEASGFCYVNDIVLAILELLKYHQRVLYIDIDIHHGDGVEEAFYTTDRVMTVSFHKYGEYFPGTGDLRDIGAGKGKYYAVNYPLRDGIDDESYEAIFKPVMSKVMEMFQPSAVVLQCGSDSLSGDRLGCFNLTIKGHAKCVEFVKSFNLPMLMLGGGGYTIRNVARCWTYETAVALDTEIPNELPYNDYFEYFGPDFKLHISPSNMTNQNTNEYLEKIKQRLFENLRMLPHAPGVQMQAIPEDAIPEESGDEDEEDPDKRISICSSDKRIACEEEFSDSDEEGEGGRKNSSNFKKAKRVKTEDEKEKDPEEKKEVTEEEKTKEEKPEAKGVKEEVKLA

binding result [1]	binding result (Flag-IkΔE5)	Binder
binds		B1
	no binding	B2
